Common to all, as to assay: purified protein
Substrate in data set [1]: COc1cc(/C=C/C(=O)SCCNC(=O)CCNC(=O)[C@H](O)C(C)(C)COP(=O)(O)OP(=O)(O)OC[C@H]2O[C@@H](n3cnc4c(N)ncnc43)[C@H](O)[C@@H]2OP(=O)(O)O)ccc1O
Conditions: 100 μM agmatine sulphate, 50 mM Tris-HCl pH 7.5, room temperature, apparent Km, acyl-donor.

Substrate in data set [2]: NCCCCN
Conditions: 100 μM p-coumaroyl-CoA, 50 mM Tris-HCl pH 7.5, room temperature, apparent Km, acyl-acceptor.

Substrate in data set [3]: CC(C)(COP(=O)(O)OP(=O)(O)OC[C@H]1O[C@@H](n2cnc3c(N)ncnc32)[C@H](O)[C@@H]1OP(=O)(O)O)[C@@H](O)C(=O)NCCC(=O)NCCSC(=O)/C=C/c1ccc(O)cc1
Conditions: 100 μM agmatine sulphate, 50 mM Tris-HCl pH 7.5, room temperature, apparent Km, acyl-donor.

Substrate in data set [4]: N=C(N)NCCCCN
Conditions: 100 μM p-coumaroyl-CoA, 50 mM Tris-HCl pH 7.5, room temperature, apparent Km, acyl-acceptor.

From paper PMC6123407 come the findings set out here.

B1: HvACT1 (agmatine coumaroyltransferase, ACT) (Hordeum vulgare) (protein)
chain: MKITVHSSKAVKPEYGACGLAPGCTADVVPLTVLDKANFDTYISVIYAFHAPAPPNAVLEAGLGRALVDYREWAGRLGVDASGGRAILLNDAGARFVEATADVALDSVMPLKPTSEVLSLHPSGDDGPEELMLIQVTRFACGSLVVGFTTQHIVSDGRSTGNFFVAWSQATRGAAIDPVPVHDRASFFHPREPLHVEYEHRGVEFKPCEKAHDVVCGADGDEDEVVVNKVHFSREFISKLKAHASAGAPRPCSTLQCVVAHLWRSMTMARGLDGGETTSVAIAVDGRARMSPQVPDGYTGNVILWARPTTTAGELVTRPVKHAVELISREVARINDGYFKSFIDFANSGAVEKERLVATADAADMVLSPNIEVDSWLRIPFYDMDFGGGRPFFFMPSYLPVEGLLILLPSFLGDGSVDAYVPLFSRDMNTFKNCCYSLD
Regarding B1, the Km in “purified protein [1]” is 2.0 ± 0.14 µM; in the data set “purified protein [2]” it was 7,200 ± 530 μM; in the data set “purified protein [3]”, 1.1 ± 0.12 µM; in the data set “purified protein [4]”, 1.7 ± 0.13 µM. Also, the turnover number (kcat) in the data set “purified protein [1]” came out at 18 s⁻¹; in “purified protein [2]”, 4.7 s⁻¹; in “purified protein [3]”, 39 s⁻¹; in “purified protein [4]” it was 38 s⁻¹. In addition, the kcat/Km amounted to 9e+06 M⁻¹ s⁻¹ in “purified protein [1]”, 650 M⁻¹ s⁻¹ in “purified protein [2]”, 3.5e+07 M⁻¹ s⁻¹ in “purified protein [3]” and 2.2e+07 M⁻¹ s⁻¹ in “purified protein [4]”.

In general, Km refers to the substrate concentration at which the rate is half of its maximum. Usually kcat stands for the number of substrate molecules converted per active site and unit of time at saturation. As usually defined, the kcat/Km is the turnover number divided by the Michaelis constant.
